# Laboratory results published in patent US20220380738.
# B1: RecB^exo- (full-length nuclease deficient RecB DNA helicase variant, E1020A/D1080A/K1082A, N-terminal 6xHis tag) (protein)
# chain: MSDVAETLDPLRLPLQGERLIEASAGTGKTFTIAALYLRLLLGLGGSAAFPRPLTVEELLVVTFTEAATAELRGRIRSNIHELRIACLRETTDNPLYERLLEEIDDKAQAAQWLLLAERQMDEAAVFTIHGFCQRMLNLNAFESGMLFEQQLIEDESLLRYQACADFWRRHCYPLPREIAQVVFETWKGPQALLRDINRYLQGEAPVIKAPPPDDETLASRHAQIVARIDTVKQQWRDAVGELDALIESSGIDRRKFNRSNQAKWIDKISAWAEEETNSYQLPESLEKFSQRFLEDRTKAGGETPRHPLFEAIDQLLAEPLSIRDLVITRALAEIRETVAREKRRRGELGFDDMLSRLDSALRSESGEVLAAAIRTRFPVAMIDEFQDTDPQQYRIFRRIWHHQPETALLLIGDPKQAIYAFRGADIFTYMKARSEVHAHYTLDTNWRSAPGMVNSVNKLFSQTDDAFMFREIPFIPVKSAGKNQALRFVFKGETQPAMKMWLMEGESCGVGDYQSTMAQVCAAQIRDWLQAGQRGEALLMNGDDARPVRASDISVLVRSRQEAAQVRDALTLLEIPSVYLSNRDSVFETLEAQEMLWLLQAVMTPERENTLRSALATSMMGLNALDIETLNNDEHAWDVVVEEFDGYRQIWRKRGVMPMLRALMSARNIAENLLATAGGERRLTDILHISELLQEAGTQLESEHALVRWLSQHILEPDSNASSQQMRLESDKHLVQIVTIHKSKGLEYPLVWLPFITNFRVQEQAFYHDRHSFEAVLDLNAAPESVDLAEAERLAEDLRLLYVALTRSVWHCSLGVAPLVRRRGDKKGDTDVHQSALGRLLQKGEPQDAAGLRTCIEALCDDDIAWQTAQTGDNQPWQVNDVSTAELNAKTLQRLPGDNWRVTSYSGLQQRGHGIAQDLMPRLDVDAAGVASVVEEPTLTPHQFPRGASPGTFLHSLFEDLDFTQPVDPNWVREKLELGGFESQWEPVLTEWITAVLQAPLNETGVSLSQLSARNKQVAMEFYLPISEPLIASQLDTLIRQFDPLSAGCPPLEFMQVRGMLKGFIDLVFRHEGRYYLLAYASNWLGEDSSAYTQQAMAAAMQAHRYDLQYQLYTLALHRYLRHRIADYDYEHHFGGVIYLFLRGVDKEHPQQGIYTTRPNAGLIALMDEMFAGMTLEEA
# Legend:
# [1] = system: CbAgo (Clostridium butyricum); test: cleavage_in_vitro; settings: 5'-phosphate
# [2] = target: T1, RecC protein (wild type, N-terminal 6xHis tag), P07648
# T1 chain: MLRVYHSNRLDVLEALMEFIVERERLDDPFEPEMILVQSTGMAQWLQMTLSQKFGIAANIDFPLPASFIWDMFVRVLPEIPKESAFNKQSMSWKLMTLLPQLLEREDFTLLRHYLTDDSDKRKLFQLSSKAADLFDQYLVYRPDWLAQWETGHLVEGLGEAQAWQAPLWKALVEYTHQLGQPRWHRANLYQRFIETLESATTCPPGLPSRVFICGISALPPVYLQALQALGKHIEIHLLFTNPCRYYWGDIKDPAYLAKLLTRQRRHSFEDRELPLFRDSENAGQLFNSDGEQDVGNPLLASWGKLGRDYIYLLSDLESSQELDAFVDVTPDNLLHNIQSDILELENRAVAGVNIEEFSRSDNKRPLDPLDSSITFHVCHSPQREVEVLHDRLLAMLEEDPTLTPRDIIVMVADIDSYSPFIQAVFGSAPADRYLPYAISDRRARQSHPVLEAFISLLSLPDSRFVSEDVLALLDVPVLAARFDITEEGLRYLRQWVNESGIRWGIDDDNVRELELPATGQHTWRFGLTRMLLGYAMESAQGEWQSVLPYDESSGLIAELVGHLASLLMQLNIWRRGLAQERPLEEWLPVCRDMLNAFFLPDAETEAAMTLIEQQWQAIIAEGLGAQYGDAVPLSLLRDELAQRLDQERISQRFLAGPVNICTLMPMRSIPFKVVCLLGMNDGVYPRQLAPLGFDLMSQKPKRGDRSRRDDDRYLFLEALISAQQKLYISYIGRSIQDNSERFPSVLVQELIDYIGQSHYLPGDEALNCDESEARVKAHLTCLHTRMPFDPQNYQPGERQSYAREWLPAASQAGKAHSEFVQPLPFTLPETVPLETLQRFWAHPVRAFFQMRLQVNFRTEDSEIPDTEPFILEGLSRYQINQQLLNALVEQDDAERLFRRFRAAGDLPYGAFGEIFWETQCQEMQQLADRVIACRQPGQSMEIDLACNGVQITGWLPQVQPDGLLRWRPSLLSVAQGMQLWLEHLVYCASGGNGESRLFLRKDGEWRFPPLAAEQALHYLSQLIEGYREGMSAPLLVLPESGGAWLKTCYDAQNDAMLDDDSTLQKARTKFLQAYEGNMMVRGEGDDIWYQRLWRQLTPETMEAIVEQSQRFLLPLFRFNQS
Molecule,"activity ([1]; 16 min, 37 C) [% cleaved]","activity ([1]; 4 min, 37 C) [% cleaved]",other results
AGTGCTGAGGTTGACTTAGTT / GTTTGCTGATGAACTAAGTCAACCTCAGCATCAACCTTGCGAGTCATTTCTTT [T2-A1 ; ss-phiX174],35,,
CGCAAGGTTAGTGCTGAGGTT / GTTTGCTGATGAACTAAGTCAACCTCAGCATCAACCTTGCGAGTCATTTCTTT [T1-C1 ; ss-phiX174],50,,
GTGCTGAGGTTGACTTAGTTC / GTTTGCTGATGAACTAAGTCAACCTCAGCATCAACCTTGCGAGTCATTTCTTT [T2-G1 ; ss-phiX174],,80,
TCGCAAGGTTAGTGCTGAGGT / GTTTGCTGATGAACTAAGTCAACCTCAGCATCAACCTTGCGAGTCATTTCTTT [T1 ; ss-phiX174],,74,
TGACTGCGATCCTGCAT / GCTAGATAGATTGACAGATTACTCAAGCAGGCATGCAGGATCGCAGTCAGATTTATGTGTCATATAGTACGTGATTCAAG / CTTGAATCACGTACTATATGACACATAAATCTGACTGCGATCCTGCATGCCTGCTTGAGTAATCTGTCAATCTATCTAGC [B12 ; 80 bp blunt substrate],,,"activity ([1]; with RecdeltaB-C helicase, 15 min, 2-fold more with added CbuRecQ): 25 % cleaved"
B1,,,"DNA unwinding activity (DpnI-based helicase assay, capillary electrophoresis) [2]: RecB^exo- alone is a weak DNA helicase, but its unwinding activity significantly increases after interaction with RecC protein"
